This is an account of results in doi:10.1101/2021.05.10.443412 (bioRxiv, 2021).

Common to all, as to assay: ITC
Test [1] deals with FIH-1 Y71A (human, UniProt Q9NWT6 1-349, Tyr71 replaced with Ala).
The target of test [2] is FIH-1 K75A (human, UniProt Q9NWT6 1-349, Lys75 replaced with Ala).
Test [3] has as its target FIH-1 E79A (human, UniProt Q9NWT6 1-349, Glu79 replaced with Ala).
Test [4] has as its target FIH-1 N171A (human, UniProt Q9NWT6 1-349, Asn171 replaced with Ala).
Test [5] addresses FIH-1 E29A (human, UniProt Q9NWT6 1-349, Glu29 replaced with Ala).
In test [6] the target is FIH-1 D248A (human, UniProt Q9NWT6 1-349, Asp248 replaced with Ala).
Chain of FIH-1 D248A (Q9NWT6 whole entry D248A): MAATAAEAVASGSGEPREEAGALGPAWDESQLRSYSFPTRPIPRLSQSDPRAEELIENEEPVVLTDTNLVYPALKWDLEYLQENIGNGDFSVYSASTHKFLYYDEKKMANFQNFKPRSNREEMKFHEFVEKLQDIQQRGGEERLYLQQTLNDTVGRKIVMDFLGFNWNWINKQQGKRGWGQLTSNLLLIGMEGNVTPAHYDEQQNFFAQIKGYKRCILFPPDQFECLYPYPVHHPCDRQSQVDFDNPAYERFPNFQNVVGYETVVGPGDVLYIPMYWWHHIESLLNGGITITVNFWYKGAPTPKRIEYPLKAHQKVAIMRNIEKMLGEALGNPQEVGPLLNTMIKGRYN
In test [7] the target is FIH-1 E250A (human, UniProt Q9NWT6 1-349, Glu250 replaced with Ala).
Chain of FIH-1 E250A (Q9NWT6 whole entry E250A): as the sequence (Q9NWT6 whole entry D248A) above, with A248D, E250A counted along it
For test [8], the target named is factor inhibiting HIF-1 (FIH-1), full-length (human, UniProt Q9NWT6 1-349).
Chain of factor inhibiting HIF-1 (FIH-1), full-length (Q9NWT6 whole entry): as the sequence (Q9NWT6 whole entry D248A) above, with A248D counted along it

Chain of FIH-1 Y71A (Q9NWT6 whole entry Y71A): as the sequence (Q9NWT6 whole entry D248A) above, with Y71A, A248D counted along it
Chain of FIH-1 E29A (Q9NWT6 whole entry E29A): as the sequence (Q9NWT6 whole entry D248A) above, with E29A, A248D counted along it
Chain of FIH-1 E79A (Q9NWT6 whole entry E79A): as the sequence (Q9NWT6 whole entry D248A) above, with E79A, A248D counted along it
Chain of FIH-1 K75A (Q9NWT6 whole entry K75A): as the sequence (Q9NWT6 whole entry D248A) above, with K75A, A248D counted along it
Chain of FIH-1 N171A (Q9NWT6 whole entry N171A): as the sequence (Q9NWT6 whole entry D248A) above, with N171A, A248D counted along it

B1: Mint3NT, N-terminal fragment (1-214) of Mint3 (domain or fragment)
chain: MDFPTISRSPSGPPAMDLEGPRDILVPSEDLTPDSQWDPMPGGPGSLSRMELDESSLQELVQQFEALPGDLVGPSPGGAPCPLHIATGHGLASQEIADAHGLLSAEAGRDDLLGLLHCEECPPSQTGPEEPLEPAPRLLQPPEDPDEDSDSPEWVEGASAEQEGSRSSSSSPEPWLETVPLVTPEEPPAGAQSPETLASYPAPQEVPGPCDHED
For the molecule B1, the binding result in test [1], in test [2], in test [3], in test [4], in test [5] and in test [6] was “binds” throughout. For the same molecule, in test [7], the binding result is listed as “binds”. For the same molecule, the dH in test [8] was -32.2 ± 0.7 kcal/mol. Besides, the “stoichiometry N” value in test [8] came out at 0.48 ± 0.02.

B2: Mint3NTmut (domain or fragment)
chain: MDFPTISRSPSGPPAMDLEGPRDILVPSEDLTPDSQWDPMPGGPGSLSRMELDESSLQELVQQFEALPGDLVGPSPGGAPCPLHIATGHGLASQEIADAHAAASAAAGRDDLLGLLHCEECPPSQTGPEEPLEPAPRLLQPPEDPDEDSDSPEWVEGASAEQEGSRSSSSSPEPWLETVPLVTPEEPPAGAQSPETLASYPAPQEVPGPCDHED
In the case of B2, in test [8], the Kd is 1.31 µM, the dH is -13.9 kcal/mol and the “stoichiometry N” value was roughly 0.5.

B3: Mint3 fragment (1-92) (domain or fragment)
chain: MDFPTISRSPSGPPAMDLEGPRDILVPSEDLTPDSQWDPMPGGPGSLSRMELDESSLQELVQQFEALPGDLVGPSPGGAPCPLHIATGHGLA
B3: the “stoichiometry N” value in test [8] was roughly 0.5.
With SQEIADAHGLLSAEAGRDDLLGLLH [short peptide of Mint3 (93-117)], in test [8], the Kd is 3 ± 0.6 µM and the “stoichiometry N” value is roughly 0.5.

B4: Mint3 (1-117) (domain or fragment)
chain: MDFPTISRSPSGPPAMDLEGPRDILVPSEDLTPDSQWDPMPGGPGSLSRMELDESSLQELVQQFEALPGDLVGPSPGGAPCPLHIATGHGLASQEIADAHGLLSAEAGRDDLLGLLH
Consider B4, for which, in test [8], the Kd is 0.65 ± 0.07 µM and the “stoichiometry N” value is roughly 0.5.
